B1: ZNF193 (parent)
chain: QCIECGKSFNRHCNLIRHQKIHTV

Variants of: B1
Assay: protein stability index of a GFP-peptide fusion (GPS, HEK-293T) (PSI 1-6); higher = more stable
Conditions: c terminus: a fixed tail appended
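Also: lentivirally expressed fusions sorted by FACS into six bins by GFP to DsRed ratio, PSI derived from sequencing read proportions per bin multiplied by bin number.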

Protein stability index: each site, then its substitutions
C13: E 4.55 | L 2.73 | D 4.1 | I 3.04 | R 3.91 | A 4.31
F9: L 1.9 | K 3.06 | G 2.86 | T 2.59 | H 2.55 | Q 2.88 | C 3.47
H18: W 2.21 | T 1.66 | F 2.4 | D 1.97 | L 1.71 | A 2.45 | G 2.91 | V 1.45 | R 1.87 | I 2
N14: Y 2.33 | L 3.11 | A 3.9 | C 3.43 | M 3.5 | V 2.83 | E 3.94 | R 3.12 | H 3.44 | Q 4.31
N10: K 4.64 | C 3 | F 3.02 | Y 2.98 | W 3.51 | P 2.8 | R 3.97
R17: A 3.31 | S 3.4 | Q 3.91 | K 3.74
S8: D 3.4 | A 2.84 | C 3.85 | R 3.77 | T 3.96 | F 4.03 | V 4.35 | H 3.29
C2: M 1.71 | G 2.13 | S 1.81 | Y 2.03
H22: M 2.34 | F 1.63 | C 4.83 | N 2.78 | P 2.62 | Q 2.7
G6: E 2.84 | V 1.92 | C 1.99 | P 2.18 | H 2.15 | Q 2.44
H12: L 4.23 | F 3.06 | G 3.02 | K 3.98 | N 3.52 | D 3.36 | Q 4
R11: W 2.62 | I 2.89 | C 3.55 | G 3.25 | A 3.38 | K 3.7
L15: C 3.6 | K 2.94 | F 3.32 | I 2.24 | V 2.34 | D 3.18 | Y 3.35 | H 4.19 | Q 2.9 | R 3.01 | N 3.29 | T 2.29
C5: H 1.98 | A 2.36 | L 1.54 | M 1.94 | N 1.79 | S 2.56 | E 2.71 | D 2.52
I16: N 2.89 | V 3.69 | M 3.1 | Y 2.94 | T 3.3 | H 3.18 | C 3.9 | E 3.44 | F 2.43
Q1: G 2.45 | M 3.54 | S 3.44 | F 2.83 | V 3.21 | W 2.3 | D 3.5 | T 4.04 | E 2.8 | L 3.14
Q19: S 3.46 | G 2.5 | A 2.84 | V 2.5 | H 2.72
T23: W 2.56 | S 3.68 | K 3.47 | Q 4.09 | Y 3.31 | I 2.6
I21: V 3.74 | W 3.55 | L 3.48 | N 3.52 | P 3.1 | F 3.15 | Q 4.49
K7: V 2.44 | D 2.57 | M 3.34 | N 2.34 | Q 3.45 | I 3.08
I3: L 3.87 | M 3.69 | C 3.63 | A 4.7 | E 4.31 | H 4.06 | W 3.18 | F 3.32 | K 3.87 | G 3.72 | P 4.11
E4: N 2.76 | H 4.27 | A 3.12 | S 2.75 | L 2.66 | I 3.54
V24: N 4.22 | W 2.75 | K 4.68 | T 3.84 | Y 3.4 | R 3.83

— the supplement of paper PMC10567573
